Experimental data from the DeepSol protein solubility set.

Experiment: soluble on expression in E. coli; label from the status in PepcDB or PDB records

Row | Sequence | soluble on expression in E. coli
1 | MNLVALAQLILFVLRNLNLKPRKHKPEEIALAIAAYVMGVQITKLNIPPSTLYYYTRKLGVKRRKDVRPRCPSCNSDRVIKNGSSRGKSKYKCKVCGRTFYGTASHRMSREQRERILREYTNRMSLRGISKVEGRPLTTVYSSVKRAALKAYVDLSILQAQLKAFRSKFAVLDESWTYVRVRRGPRRQNLWIWNALIDGVPFFVTGDRDYNTFRLLWLSLPKCEVHYTDDYPIYQVLYHHVVGKKYTHTVESYNSFCRSHLARLARDTKAVNRSRAMIDYSLALLNVMYPQVFTDEKTPLNLAYLSGVQYIRDHLILEHHHHHH | soluble
2 | MNMAERAEATKSWSCEPLSGKTLEEIVQNAENAADLVAYIRKPEVDLDFRLKFIAEHEEFFNEQLSDRNSRIRTCHNLSDKGIRGDTVFVFVPGLAGNLEQFEPLLELVDSDQKAFLTLDLPGFGHSSEWSDYPMLKVVELIFVLVCDVLRKWSTAVPNNDNVNPFNGHKIVLVGHSMGCFLACHLYEQHMADTKAVQTLVLLTPPKAHIEQLSKDKHIIQWALYGVFKLPWLFDVYRNKFDQVKGLQSSGIKQYFYQQGDDVKLKYRKFWQFKNNISNKSRTIIGYLLGWETVDWVKFNGVLTQTDMKQKIIIFGAEKDPIAPIENLEFYKQTINKECLRKVIILPDCSHNLCFDRPELVCENFQREVIDNSKL | soluble
3 | MNMDFNLFMNDIVRQARQEITAAGYTELKTAEEVDEALTKKGTTLVMVNSVCGCAGGIARPAAYHSVHYDKRPDQLVTVFAGQDKEATARARDYFEGYPPSSPSFAILKDGKIMKMVERHEIEGHEPMAVVAKLQEAFEEYCEEV | not soluble
4 | MNMFNRKAKQEVTKKPEASNGSKNSKSTFVNSKSPNQKRREVKKSDSDTESSHKNTRRTKPVPVPAASSNSKGSNEKHKRKSVQQVVKKVVNHIPFSPSKQPKSTSTPPVSEGNRKRLAMADVSINQLESEMDSFVKKIEPNERRATQYIHSNSLSRSNEAVPPGNVKTSQQKADHHLIRTTRSLIGLDGETEAVYSKATKASPDKGKLTADSPSSRRTSKSLEENSSETTNDSISLADDEETREAYRKLFKDFAMSSQKMTLDDFKQEFSNLPGDPPSDLCTVFNHPVNNKKNRYSNIPCLDISRVQLKFKMPNKNSTDYIHANYIRSPFLKRGYILTQGPKKETRADFWRMIWQENTTAIVMLCQFLETNREKCAEYFPRNAHCCLQFDKFSVNYEDSTVNKSLVTTRLNLSYEGETRLITHWLWKEWPDWQVPESSEVMLKILRKIRARSTPPVIHCSAGVGRSGTLMAVEIALQSIHTHFTLPDIKQIVSHLRVTGRAASVQTLQQYMLIWKVLLDFGVAYKQITEELAEKFNSTYRRSLRSINGT | not soluble
5 | MNMSRHDEFGGSTNKGPVQEHDVIMRGRRLLDITGVKQVESFDNEEFLLETVMGFLAIRGQNLQMKNLDVDKGVVSIKGRIFDLVYLDDHQEKAKGFFSKLFK | not soluble
6 | MNNFTYEKLHNNLQYLKLNTIEELLDNCLEIAARDSKTTMEVLDYLFEQEKKHREAAAIERRMKSAGFPVKKMLEEFDFEFQSSINKKVIEDLATLRFVHNAENIVLLGPPGVGKSHLAIALGIEAVKAGISVHFTNTGNLIERLKIANREGILEKKIRDLMKFKVLIIDEIGYLPFDDEGAHCLFQLISRRYEKSSTILTSNKSYGEWGEIFKDHVIAAALLDRILHHCTTINIKGESYRLKERKKQGIKTGLIRHNSTEILENLEHHHHHH | soluble
7 | MNNGTVKWFNAEKGFGFIEQENGGDVFVHFSGIASDGYKTLEEGQKVTFEITEGQRGDQAVNVQTV | not soluble
8 | MNNHNCFLTPLQQKFMQILSDYERDPKSIQIHEESDQMDVVISYFKLLLAEKSRLLQYGQANFSVHLIDEEIGRLFMAPISMADIGILEECGREALRFTDLGAMFSDSDDSMHSDEDEVTLTESIRIPVETYPTYNFIGRIIGPRGTTAKQLEKDTGCRIMIRGNHSNKMYGNALHKTHGDGSQDAIDLPLRVIVETSGPRREATARITAALETVQVLLVPPPDGRDELKRRQLVELAIMNGTYRPSCSRIDHN | not soluble
